Reference: article PMC2661844, “HD-PTP Is a Catalytically Inactive Tyrosine Phosphatase Due to a Conserved Divergence in Its Phosphatase Domain” (PLoS ONE, 2009)

B1: Flag-HD-PTP catalytic domain (CD) (Homo sapiens; S1394A) (protein)
chain: ERLRQLQQELEAFRGQLGDVGALDTVWRELQDAQEHDARGRSIAIARCYSLKNRHQDVMPYDSNRVVLRSGKDDYINASCVEGLSPYCPPLVATQAPLPGTAADFWLMVHEQKVSVIVMLVSEAEMEKQKVARYFPTERGQPMVHGALSLALSSVRSTETHVERVLSLQFRDQSLKRSLVHLHFPTWPELGLPDSPSNLLRFIQEVHAHYLHQRPLHTPIIVHCSAGVGRTGAFALLYAAVQEVEAGNGIPELPQLVRRMRQQRKHMLQEKLHLRFCYEAVVRHVEQVLQRH
notes: PTP catalytic domain, residues 1169-1460, 2xFlag tag kept, expressed in HEK 293T, anti-Flag purified
B2: Flag-HD-PTP full-length (HD) (Homo sapiens; S1394A) (protein)
chain: MEAVPRMPMIWLDLKEAGDFHFQPAVKKFVLKNYGENPEAYNEELKKLELLRQNAVRVPRDFEGCSVLRKYLGQLHYLQSRVPMGSGQEAAVPVTWTEIFSGKSVAHEDIKYEQACILYNLGALHSMLGAMDKRVSEEGMKVSCTHFQCAAGAFAYLREHFPQAYSVDMSRQILTLNVNLMLGQAQECLLEKSMLDNRKSFLVARISAQVVDYYKEACRALENPDTASLLGRIQKDWKKLVQMKIYYFAAVAHLHMGKQAEEQQKFGERVAYFQSALDKLNEAIKLAKGQPDTVQDALRFTMDVIGGKYNSAKKDNDFIYHEAVPALDTLQPVKGAPLVKPLPVNPTDPAVTGPDIFAKLVPMAAHEASSLYSEEKAKLLREMMAKIEDKNEVLDQFMDSMQLDPETVDNLDAYSHIPPQLMEKCAALSVRPDTVRNLVQSMQVLSGVFTDVEASLKDIRDLLEEDELLEQKFQEAVGQAGAISITSKAELAEVRREWAKYMEVHEKASFTNSELHRAMNLHVGNLRLLSGPLDQVRAALPTPALSPEDKAVLQNLKRILAKVQEMRDQRVSLEQQLRELIQKDDITASLVTTDHSEMKKLFEEQLKKYDQLKVYLEQNLAAQDRVLCALTEANVQYAAVRRVLSDLDQKWNSTLQTLVASYEAYEDLMKKSQEGRDFYADLESKVAALLERTQSTCQAREAARQQLLDRELKKKPPPRPTAPKPLLPRREESEAVEAGDPPEELRSLPPDMVAGPRLPDTFLGSATPLHFPPSPFPSSTGPGPHYLSGPLPPGTYSGPTQLIQPRAPGPHAMPVAPGPALYPAPAYTPELGLVPRSSPQHGVVSSPYVGVGPAPPVAGLPSAPPPQFSGPELAMAVRPATTTVDSIQAPIPSHTAPRPNPTPAPPPPCFPVPPPQPLPTPYTYPAGAKQPIPAQHHFSSGIPAGFPAPRIGPQPQPHPQPHPSQAFGPQPPQQPLPLQHPHLFPPQAPGLLPPQSPYPYAPQPGVLGQPPPPLHTQLYPGPAQDPLPAHSGALPFPSPGPPQPPHPPLAYGPAPSTRPMGPQAAPLTIRGPSSAGQSTPSPHLVPSPAPSPGPGPVPPRPPAAEPPPCLRRGAAAADLLSSSPESQHGGTQSPGGGQPLLQPTKVDAAEGRRPQALRLIERDPYEHPERLRQLQQELEAFRGQLGDVGALDTVWRELQDAQEHDARGRSIAIARCYSLKNRHQDVMPYDSNRVVLRSGKDDYINASCVEGLSPYCPPLVATQAPLPGTAADFWLMVHEQKVSVIVMLVSEAEMEKQKVARYFPTERGQPMVHGALSLALSSVRSTETHVERVLSLQFRDQSLKRSLVHLHFPTWPELGLPDSPSNLLRFIQEVHAHYLHQRPLHTPIIVHCSAGVGRTGAFALLYAAVQEVEAGNGIPELPQLVRRMRQQRKHMLQEKLHLRFCYEAVVRHVEQVLQRHGVPPPCKPLASASISQKNHLPQDSQDLVLGGDVPISSIQATIAKLSIRPPGGLESPVASLPGPAEPPGLPPASLPESTPIPSSSPPPLSSPLPEAPQPKEEPPVPEAPSSGPPSSSLELLASLTPEAFSLDSSLRGKQRMSKHNFLQAHNGQGLRATRPSDDPLSLLDPLWTLNKT
notes: full length, residues 1-1636, 2xFlag tag kept, expressed in HEK 293T, anti-Flag purified

Assays:
[1] = substrate: Cc1cc(=O)oc2c(F)c(OP(=O)(O)O)c(F)cc12; experiment: fluorogenic DiFMUP hydrolysis, Michaelis-Menten fit; assay type: biochemical, Homo sapiens; conditions: 50 mM Hepes, 3 mM DTT, 0.1 mg/ml BSA, pH 6.5, 37 °C, DiFMUP 0-300 µM, wild type inactive
Text: fluorogenic DiFMUP hydrolysis, Michaelis-Menten fit on Flag-HD-PTP catalytic domain (CD)

[2] = substrate: Cc1cc(=O)oc2c(F)c(OP(=O)(O)O)c(F)cc12; experiment: as above; assay type: biochemical, Homo sapiens; conditions: 50 mM Hepes, 3 mM DTT, 0.1 mg/ml BSA, pH 6.5, 37 °C, DiFMUP 0-300 µM, wild type inactive; remark: listed apart in the source
Text: fluorogenic DiFMUP hydrolysis, Michaelis-Menten fit on Flag-HD-PTP full-length (HD)

Row | Protein | Km [1] | kcat [1] | Km [2] | kcat [2] | kcat/Km [2]
1 | B1 | 18 µM | 0.1 s⁻¹ |  |  | 
2 | B2 |  |  | 28 µM | 0.2 s⁻¹ | 6000 M⁻¹ s⁻¹
